# US9803013B2, “Biological materials and uses thereof” (BioInvent International AB, priority 2005, dated 2017)
# B1: B11: fully human IgG1 antibody specific for ICAM-1; VH and VL sequences of FIG. 10 (SEQ ID NOs. 6 and 8) (antibody, listed as Homo sapiens, V domains shown)
# VH: EVQLLESGGGLVQPGGSLRLSCAASGFTFSNAWMSWVRQAPGKGLEWVAFIWYDGSNKYYADSVKGRFTISRDNSKNTLYLQMNSLRAEDTAVYYCARYSGWYFDYWGQGTLVTVSS
# VL: QSVLTQPPSASGTPGQRVTISCTGSSSNIGAGYDVHWYQQLPGTAPKLLIYDNNNRPSGVPDRFSGSKSGTSASLAISGLRSEDEADYYCQSYDSSLSAWLFGGGTKLTVLG
# Key:
# human FcγRIIIa = biological target: T1, human FcγRIIIa (Homo sapiens, UniProt P08637); assay: BiaCore analysis of BI-505 Fc-variant binding to FcγR
# T1 construct: made in house; host or cells: HEK293E cells (transient)
# Protocol: (FIG. 20C) BiaCore analysis of BI-505 Fc-variant antibodies binding to human FcγRIIIa.
# His-tagged human FcγRIIIa and mouse FcγRIV were transiently expressed in HEK293E cells, purified using Ni-NTA chromatography, and characterized by SDS-PAGE and/or Biacore. Surface plasmon resonance (SPR) measurements were performed using a Biacore 3000 instrument. Goat F(ab)′2 α-human-F(ab)′2 fragments (Jackson Laboratories) were immobilized with a CM-5 chip using a standard amine coupling protocol. BI-505 (IgG1) and IgG4 or IgG1 297Q variants of BI-505 were diluted to 15 and 60 μg/mL respectively and added to the surface at 10 μL/min for 3 min. His-tagged human FcγRIIIa or mouse FcγRIV was pre-incubated with an α-HIS antibody (R&D Systems) at a 2:1 molar ratio before addition to the chip surface, 30 μL/min, for 1 min. After each cycle the surface was regenerated twice with glycine buffer pH 1.7.
# MM cells = assay: FACS analysis of BI-505 epitope expression on patients' plasma cells; assay type: binding, human; set-up: key to BI-505 epitope expression Intensity: BI-505 negative cells (−) are B-cells from patient number 8; (+), (++) and (+++) corresponding to patient number 8, 7 and 10; (+), (++) and (+++) corresponding to patient number 8, 7 and 10; (+), (++) and (+++) corresponding to patient number 8, 7 and 10; conditions: for BI-505 epitope expression Intensity: FACS on MM cells
# Text: (FIG. 16A) Analysis of myeloma cells in bone marrow from multiple myeloma patients by flow cytometry. Myeloma cells were gated based on expression of CD138, CD38, CD56 and CD45 according to international guidelines (Rawstron et al., 2008). Furthermore, intracellular staining was used to confirm monoclonal expression by K and A staining. B1-505 epitope expression was categorized as shown in the histogram (right position) with (+), (++) and (+++) corresponding to patient number 8, 7 and 10. BI-505 negative cells (−) are B-cells from patient number 8.
# It was next evaluated the expression of the BI-505 epitope on bone marrow cells in patients with MM and related diseases (plasmacytoma, plasma cell leukemia, and light chain amyloidosis) by flow cytometry (FIG. 15 and Table 4). Myeloma cells were identified using fluorescent antibodies against surface antigens CD38, CD138, CD45 and CD56 (FIG. 16A) according to European Myeloma Network guidelines on multiparametric flow cytometry in MM (Rawstron et al., 2008) and confirming monoclonal MM cells with intracellular staining of λ and κ light chains. All MM patients expressed the BI-505 epitope on most (97±4%, mean±SD, patient n=22) myeloma cells (FIG. 15 and Table 4). The BI-505 epitope was generally very highly expressed on these cells, with median expression level 10 times higher than on normal B cells from the same patients. Similar results were obtained with a commercially available anti-ICAM-1 antibody (data not shown). Furthermore, the BI-505 epitope was highly expressed on myeloma cells in a patient in relapse who had received several different lines of therapy (FIG. 16B). Thus, ICAM-1 and the BI-505 epitope are strongly expressed on the surface of MM plasma cells.
# Plasma cell surface expression of ICAM-1 and the BI-505 epitope was analyzed by FACS. Bone marrow aspirates were obtained from 29 patients diagnosed with MM or related diseases at the Department of Hematology, Skånes University Hospital, Lund. All human samples were collected using protocols approved by the Ethics Committee of Skåne University Hospital, and informed consent was obtained from all patients.
# Bone marrow aspirates from 29 patients diagnosed with MM or related diseases (plasmocytoma, plasma cell leukemia, or amyloid light chain amyloidosis) at the Department of Hematology, Skånes University Hospital, Lund were analyzed by flow cytometry using 4 cocktails of antibodies, each suitable for recognizing plasma cells (Figure S3) after informed consent and with the approval of the local ethical committee. Clinical data were obtained from patients' charts.
# T1 sequence (P08637 17-254): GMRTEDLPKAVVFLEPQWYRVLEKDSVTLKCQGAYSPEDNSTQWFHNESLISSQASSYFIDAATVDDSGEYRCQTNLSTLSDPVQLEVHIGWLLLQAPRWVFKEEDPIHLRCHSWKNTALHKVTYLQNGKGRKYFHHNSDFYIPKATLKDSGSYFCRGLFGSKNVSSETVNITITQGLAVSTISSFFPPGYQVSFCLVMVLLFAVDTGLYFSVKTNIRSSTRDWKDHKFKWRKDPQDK
molecule,measurement,setting,value
B1,binding to human FcγR,human FcγRIIIa,bound to human FcγR
same,myeloma cells expressing the BI-505 epitope,"MM cells; all MM patients, mean±SD, patient n=22",97±4%
same,BI-505 epitope expression Positive cells (%),"MM cells; patient 1, MM",98%
same,BI-505 epitope expression Intensity,"MM cells; patient 1, MM",+++
same,BI-505 epitope expression Positive cells (%),"MM cells; patient 2, MM",97%
same,BI-505 epitope expression Intensity,"MM cells; patient 2, MM",+++
same,BI-505 epitope expression Positive cells (%),"MM cells; patient 3, MM",100%
same,BI-505 epitope expression Positive cells (%),"MM cells; patient 4, nsMM",100%
same,BI-505 epitope expression Intensity,"MM cells; patient 4, nsMM",+++
same,BI-505 epitope expression Positive cells (%),"MM cells; patient 5, MM",100%
same,BI-505 epitope expression Intensity,"MM cells; patient 5, MM",++
same,BI-505 epitope expression Positive cells (%),"MM cells; patient 6, MM",98%
same,BI-505 epitope expression Intensity,"MM cells; patient 6, MM",+++
same,BI-505 epitope expression Positive cells (%),"MM cells; patient 7, MM",98%
same,BI-505 epitope expression Intensity,"MM cells; patient 7, MM",+++
same,BI-505 epitope expression Positive cells (%),"MM cells; patient 8, MM",100%
same,BI-505 epitope expression Intensity,"MM cells; patient 8, MM",+++
same,BI-505 epitope expression Positive cells (%),"MM cells; patient 9, MM",100%
same,BI-505 epitope expression Intensity,"MM cells; patient 9, MM",++
same,BI-505 epitope expression Positive cells (%),"MM cells; patient 10, MM",95%
same,BI-505 epitope expression Intensity,"MM cells; patient 10, MM",+
same,BI-505 epitope expression Positive cells (%),"MM cells; patient 11, MM",100%
same,BI-505 epitope expression Intensity,"MM cells; patient 11, MM",+++
same,BI-505 epitope expression Positive cells (%),"MM cells; patient 12, nsMM",95%
same,BI-505 epitope expression Positive cells (%),"MM cells; patient 13, MM",100%
same,BI-505 epitope expression Intensity,"MM cells; patient 13, MM",+++
same,BI-505 epitope expression Positive cells (%),"MM cells; patient 14, MM",100%
same,BI-505 epitope expression Intensity,"MM cells; patient 14, MM",+++
same,BI-505 epitope expression Positive cells (%),"MM cells; patient 15, MM",100%
same,BI-505 epitope expression Intensity,"MM cells; patient 15, MM",+++
same,BI-505 epitope expression Positive cells (%),"MM cells; patient 16, MM",88%
same,BI-505 epitope expression Intensity,"MM cells; patient 16, MM",++
same,BI-505 epitope expression Positive cells (%),"MM cells; patient 17, MM",100%
same,BI-505 epitope expression Intensity,"MM cells; patient 17, MM",+++
same,BI-505 epitope expression Positive cells (%),"MM cells; patient 18, MM",100%
same,BI-505 epitope expression Intensity,"MM cells; patient 18, MM",+++
same,BI-505 epitope expression Positive cells (%),"MM cells; patient 19:1, MM",93%
same,BI-505 epitope expression Intensity,"MM cells; patient 19:1, MM",+++
same,BI-505 epitope expression Positive cells (%),"MM cells; patient 19:2, MM",95%
same,BI-505 epitope expression Intensity,"MM cells; patient 19:2, MM",+++
same,BI-505 epitope expression Positive cells (%),"MM cells; patient 19:3, MM",91%
same,BI-505 epitope expression Intensity,"MM cells; patient 19:3, MM",+++
same,BI-505 epitope expression Positive cells (%),"MM cells; patient 20, MM",100%
same,BI-505 epitope expression Intensity,"MM cells; patient 20, MM",+++
same,BI-505 epitope expression Positive cells (%),"MM cells; patient 21, MM",93%
same,BI-505 epitope expression Intensity,"MM cells; patient 21, MM",+++
same,BI-505 epitope expression Positive cells (%),"MM cells; patient 22, MM",86%
same,BI-505 epitope expression Intensity,"MM cells; patient 22, MM",+++
same,BI-505 epitope expression Positive cells (%),"MM cells; patient 23, AL",97%
same,BI-505 epitope expression Intensity,"MM cells; patient 23, AL",++
same,BI-505 epitope expression Positive cells (%),"MM cells; patient 24, AL",100%
same,BI-505 epitope expression Intensity,"MM cells; patient 24, AL",+++
same,BI-505 epitope expression Positive cells (%),"MM cells; patient 25, LCDD/MM",98%
same,BI-505 epitope expression Intensity,"MM cells; patient 25, LCDD/MM",+++
same,BI-505 epitope expression Positive cells (%),"MM cells; patient 26, PCL",76%
same,BI-505 epitope expression Intensity,"MM cells; patient 26, PCL",+++
same,BI-505 epitope expression Positive cells (%),"MM cells; patient 27, PCL",77%
same,BI-505 epitope expression Intensity,"MM cells; patient 27, PCL",+
same,BI-505 epitope expression Positive cells (%),"MM cells; patient 28, PC",93%
same,BI-505 epitope expression Intensity,"MM cells; patient 28, PC",+++
same,BI-505 epitope expression Positive cells (%),"MM cells; patient 29, PC",100%
same,BI-505 epitope expression Intensity,"MM cells; patient 29, PC",+++
same,increase of mean BI-505 expression in myeloma cells after first relapse,"MM cells; patient, bone marrow number 2 versus diagnosis",two-fold
